According to US20240400654A1:
“And” between values parts separate entries of the source, which are not always exact repeats. Equal entries are not always repeated.

B1: KB001 mouse Fab VH L29V (Fab, V domains shown)
VH: EVQLKQSGPGLVAPSQSLSITCTVSGFSVSIYSVHWVRQPPGKGLEWLGMIWGGGSSDYNSALKSRLSISKDNSKSQVFLKMNSLQTDDTAMYYCARNGNFYAMDYWGQGTSVTVSS
VL: QIVLTQSPAIMSASLGERVTMTCTASSSVSSSFLHWYQQKPGSSPQLWIYSTSNLASGVPARFSGSGSGTSYSLTISSMEAEDAATYYCHQYHHSPYIYTFGGGTKLEIK
B2: KB001 mouse Fab VH S30H (Fab, V domains shown)
VH: EVQLKQSGPGLVAPSQSLSITCTVSGFSLHIYSVHWVRQPPGKGLEWLGMIWGGGSSDYNSALKSRLSISKDNSKSQVFLKMNSLQTDDTAMYYCARNGNFYAMDYWGQGTSVTVSS
VL: QIVLTQSPAIMSASLGERVTMTCTASSSVSSSFLHWYQQKPGSSPQLWIYSTSNLASGVPARFSGSGSGTSYSLTISSMEAEDAATYYCHQYHHSPYIYTFGGGTKLEIK
B3: KB001 mouse Fab VH I31W (Fab, V domains shown)
VH: EVQLKQSGPGLVAPSQSLSITCTVSGFSLSWYSVHWVRQPPGKGLEWLGMIWGGGSSDYNSALKSRLSISKDNSKSQVFLKMNSLQTDDTAMYYCARNGNFYAMDYWGQGTSVTVSS
VL: QIVLTQSPAIMSASLGERVTMTCTASSSVSSSFLHWYQQKPGSSPQLWIYSTSNLASGVPARFSGSGSGTSYSLTISSMEAEDAATYYCHQYHHSPYIYTFGGGTKLEIK
B4: KB001 mouse Fab VH Y32W (Fab, V domains shown)
VH: EVQLKQSGPGLVAPSQSLSITCTVSGFSLSIWSVHWVRQPPGKGLEWLGMIWGGGSSDYNSALKSRLSISKDNSKSQVFLKMNSLQTDDTAMYYCARNGNFYAMDYWGQGTSVTVSS
VL: QIVLTQSPAIMSASLGERVTMTCTASSSVSSSFLHWYQQKPGSSPQLWIYSTSNLASGVPARFSGSGSGTSYSLTISSMEAEDAATYYCHQYHHSPYIYTFGGGTKLEIK
B5: KB001 mouse Fab VH S30R (Fab, V domains shown)
VH: EVQLKQSGPGLVAPSQSLSITCTVSGFSLRIYSVHWVRQPPGKGLEWLGMIWGGGSSDYNSALKSRLSISKDNSKSQVFLKMNSLQTDDTAMYYCARNGNFYAMDYWGQGTSVTVSS
VL: QIVLTQSPAIMSASLGERVTMTCTASSSVSSSFLHWYQQKPGSSPQLWIYSTSNLASGVPARFSGSGSGTSYSLTISSMEAEDAATYYCHQYHHSPYIYTFGGGTKLEIK
B6: KB001 mouse Fab VH Y32S (Fab, V domains shown)
VH: EVQLKQSGPGLVAPSQSLSITCTVSGFSLSISSVHWVRQPPGKGLEWLGMIWGGGSSDYNSALKSRLSISKDNSKSQVFLKMNSLQTDDTAMYYCARNGNFYAMDYWGQGTSVTVSS
VL: QIVLTQSPAIMSASLGERVTMTCTASSSVSSSFLHWYQQKPGSSPQLWIYSTSNLASGVPARFSGSGSGTSYSLTISSMEAEDAATYYCHQYHHSPYIYTFGGGTKLEIK
B7: KB001 mouse Fab VH I31L (Fab, V domains shown)
VH: EVQLKQSGPGLVAPSQSLSITCTVSGFSLSLYSVHWVRQPPGKGLEWLGMIWGGGSSDYNSALKSRLSISKDNSKSQVFLKMNSLQTDDTAMYYCARNGNFYAMDYWGQGTSVTVSS
VL: QIVLTQSPAIMSASLGERVTMTCTASSSVSSSFLHWYQQKPGSSPQLWIYSTSNLASGVPARFSGSGSGTSYSLTISSMEAEDAATYYCHQYHHSPYIYTFGGGTKLEIK
B8: KB001 mouse Fab VH S30F (Fab, V domains shown)
VH: EVQLKQSGPGLVAPSQSLSITCTVSGFSLFIYSVHWVRQPPGKGLEWLGMIWGGGSSDYNSALKSRLSISKDNSKSQVFLKMNSLQTDDTAMYYCARNGNFYAMDYWGQGTSVTVSS
VL: QIVLTQSPAIMSASLGERVTMTCTASSSVSSSFLHWYQQKPGSSPQLWIYSTSNLASGVPARFSGSGSGTSYSLTISSMEAEDAATYYCHQYHHSPYIYTFGGGTKLEIK
B9: KB001 mouse Fab VH S30T (Fab, V domains shown)
VH: EVQLKQSGPGLVAPSQSLSITCTVSGFSLTIYSVHWVRQPPGKGLEWLGMIWGGGSSDYNSALKSRLSISKDNSKSQVFLKMNSLQTDDTAMYYCARNGNFYAMDYWGQGTSVTVSS
VL: QIVLTQSPAIMSASLGERVTMTCTASSSVSSSFLHWYQQKPGSSPQLWIYSTSNLASGVPARFSGSGSGTSYSLTISSMEAEDAATYYCHQYHHSPYIYTFGGGTKLEIK
B10: KB001 mouse Fab VH Y32N (Fab, V domains shown)
VH: EVQLKQSGPGLVAPSQSLSITCTVSGFSLSINSVHWVRQPPGKGLEWLGMIWGGGSSDYNSALKSRLSISKDNSKSQVFLKMNSLQTDDTAMYYCARNGNFYAMDYWGQGTSVTVSS
VL: QIVLTQSPAIMSASLGERVTMTCTASSSVSSSFLHWYQQKPGSSPQLWIYSTSNLASGVPARFSGSGSGTSYSLTISSMEAEDAATYYCHQYHHSPYIYTFGGGTKLEIK
B11: KB001 mouse Fab VH I31E (Fab, V domains shown)
VH: EVQLKQSGPGLVAPSQSLSITCTVSGFSLSEYSVHWVRQPPGKGLEWLGMIWGGGSSDYNSALKSRLSISKDNSKSQVFLKMNSLQTDDTAMYYCARNGNFYAMDYWGQGTSVTVSS
VL: QIVLTQSPAIMSASLGERVTMTCTASSSVSSSFLHWYQQKPGSSPQLWIYSTSNLASGVPARFSGSGSGTSYSLTISSMEAEDAATYYCHQYHHSPYIYTFGGGTKLEIK
B12: KB001 mouse Fab VH Y32F (Fab, V domains shown)
VH: EVQLKQSGPGLVAPSQSLSITCTVSGFSLSIFSVHWVRQPPGKGLEWLGMIWGGGSSDYNSALKSRLSISKDNSKSQVFLKMNSLQTDDTAMYYCARNGNFYAMDYWGQGTSVTVSS
VL: QIVLTQSPAIMSASLGERVTMTCTASSSVSSSFLHWYQQKPGSSPQLWIYSTSNLASGVPARFSGSGSGTSYSLTISSMEAEDAATYYCHQYHHSPYIYTFGGGTKLEIK
B13: KB001 mouse Fab VH S30W (Fab, V domains shown)
VH: EVQLKQSGPGLVAPSQSLSITCTVSGFSLWIYSVHWVRQPPGKGLEWLGMIWGGGSSDYNSALKSRLSISKDNSKSQVFLKMNSLQTDDTAMYYCARNGNFYAMDYWGQGTSVTVSS
VL: QIVLTQSPAIMSASLGERVTMTCTASSSVSSSFLHWYQQKPGSSPQLWIYSTSNLASGVPARFSGSGSGTSYSLTISSMEAEDAATYYCHQYHHSPYIYTFGGGTKLEIK
B14: KB001 mouse Fab VH S30Q (Fab, V domains shown)
VH: EVQLKQSGPGLVAPSQSLSITCTVSGFSLQIYSVHWVRQPPGKGLEWLGMIWGGGSSDYNSALKSRLSISKDNSKSQVFLKMNSLQTDDTAMYYCARNGNFYAMDYWGQGTSVTVSS
VL: QIVLTQSPAIMSASLGERVTMTCTASSSVSSSFLHWYQQKPGSSPQLWIYSTSNLASGVPARFSGSGSGTSYSLTISSMEAEDAATYYCHQYHHSPYIYTFGGGTKLEIK
B15: KB001 mouse Fab VH S30M (Fab, V domains shown)
VH: EVQLKQSGPGLVAPSQSLSITCTVSGFSLMIYSVHWVRQPPGKGLEWLGMIWGGGSSDYNSALKSRLSISKDNSKSQVFLKMNSLQTDDTAMYYCARNGNFYAMDYWGQGTSVTVSS
VL: QIVLTQSPAIMSASLGERVTMTCTASSSVSSSFLHWYQQKPGSSPQLWIYSTSNLASGVPARFSGSGSGTSYSLTISSMEAEDAATYYCHQYHHSPYIYTFGGGTKLEIK
B16: KB001 mouse Fab VH I31F (Fab, V domains shown)
VH: EVQLKQSGPGLVAPSQSLSITCTVSGFSLSFYSVHWVRQPPGKGLEWLGMIWGGGSSDYNSALKSRLSISKDNSKSQVFLKMNSLQTDDTAMYYCARNGNFYAMDYWGQGTSVTVSS
VL: QIVLTQSPAIMSASLGERVTMTCTASSSVSSSFLHWYQQKPGSSPQLWIYSTSNLASGVPARFSGSGSGTSYSLTISSMEAEDAATYYCHQYHHSPYIYTFGGGTKLEIK
B17: KB001 mouse Fab VH S30L (Fab, V domains shown)
VH: EVQLKQSGPGLVAPSQSLSITCTVSGFSLLIYSVHWVRQPPGKGLEWLGMIWGGGSSDYNSALKSRLSISKDNSKSQVFLKMNSLQTDDTAMYYCARNGNFYAMDYWGQGTSVTVSS
VL: QIVLTQSPAIMSASLGERVTMTCTASSSVSSSFLHWYQQKPGSSPQLWIYSTSNLASGVPARFSGSGSGTSYSLTISSMEAEDAATYYCHQYHHSPYIYTFGGGTKLEIK
B18: KB001 mouse Fab VH S30K (Fab, V domains shown)
VH: EVQLKQSGPGLVAPSQSLSITCTVSGFSLKIYSVHWVRQPPGKGLEWLGMIWGGGSSDYNSALKSRLSISKDNSKSQVFLKMNSLQTDDTAMYYCARNGNFYAMDYWGQGTSVTVSS
VL: QIVLTQSPAIMSASLGERVTMTCTASSSVSSSFLHWYQQKPGSSPQLWIYSTSNLASGVPARFSGSGSGTSYSLTISSMEAEDAATYYCHQYHHSPYIYTFGGGTKLEIK
B19: KB001 mouse Fab VH I31N (Fab, V domains shown)
VH: EVQLKQSGPGLVAPSQSLSITCTVSGFSLSNYSVHWVRQPPGKGLEWLGMIWGGGSSDYNSALKSRLSISKDNSKSQVFLKMNSLQTDDTAMYYCARNGNFYAMDYWGQGTSVTVSS
VL: QIVLTQSPAIMSASLGERVTMTCTASSSVSSSFLHWYQQKPGSSPQLWIYSTSNLASGVPARFSGSGSGTSYSLTISSMEAEDAATYYCHQYHHSPYIYTFGGGTKLEIK
B20: KB001 mouse Fab VH I31Q (Fab, V domains shown)
VH: EVQLKQSGPGLVAPSQSLSITCTVSGFSLSQYSVHWVRQPPGKGLEWLGMIWGGGSSDYNSALKSRLSISKDNSKSQVFLKMNSLQTDDTAMYYCARNGNFYAMDYWGQGTSVTVSS
VL: QIVLTQSPAIMSASLGERVTMTCTASSSVSSSFLHWYQQKPGSSPQLWIYSTSNLASGVPARFSGSGSGTSYSLTISSMEAEDAATYYCHQYHHSPYIYTFGGGTKLEIK
B21: KB001 mouse Fab VH I31P (Fab, V domains shown)
VH: EVQLKQSGPGLVAPSQSLSITCTVSGFSLSPYSVHWVRQPPGKGLEWLGMIWGGGSSDYNSALKSRLSISKDNSKSQVFLKMNSLQTDDTAMYYCARNGNFYAMDYWGQGTSVTVSS
VL: QIVLTQSPAIMSASLGERVTMTCTASSSVSSSFLHWYQQKPGSSPQLWIYSTSNLASGVPARFSGSGSGTSYSLTISSMEAEDAATYYCHQYHHSPYIYTFGGGTKLEIK

Target: HRgpA-6H (Porphyromonas gingivalis) (UniProt P28784)
Experiment: ELISA, coated HRgpA-6H

Chain of UniProt P28784 (P28784 228-860 limits assumed): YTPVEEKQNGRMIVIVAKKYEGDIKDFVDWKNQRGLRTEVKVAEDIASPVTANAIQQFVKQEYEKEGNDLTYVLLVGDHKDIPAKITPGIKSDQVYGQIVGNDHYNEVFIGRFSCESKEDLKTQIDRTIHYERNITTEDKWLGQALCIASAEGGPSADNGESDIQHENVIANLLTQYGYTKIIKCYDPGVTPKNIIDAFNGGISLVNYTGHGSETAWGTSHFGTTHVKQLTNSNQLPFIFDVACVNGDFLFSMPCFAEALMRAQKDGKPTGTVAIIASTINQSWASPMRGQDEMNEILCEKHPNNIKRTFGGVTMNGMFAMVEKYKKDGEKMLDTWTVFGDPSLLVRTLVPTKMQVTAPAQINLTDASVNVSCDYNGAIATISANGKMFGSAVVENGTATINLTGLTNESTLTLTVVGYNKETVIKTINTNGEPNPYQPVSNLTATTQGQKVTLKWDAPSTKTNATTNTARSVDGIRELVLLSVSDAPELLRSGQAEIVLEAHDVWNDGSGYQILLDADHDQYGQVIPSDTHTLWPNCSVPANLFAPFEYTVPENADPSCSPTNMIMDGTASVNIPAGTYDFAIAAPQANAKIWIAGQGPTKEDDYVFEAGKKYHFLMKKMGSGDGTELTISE

Binder | OD450 nm | Ratio OD(Variant)/OD(WT)
B1 | 0.446 | 0.826
B2 | 0.482 | 0.955
B3 | 0.459 | 0.91
B4 | 0.731 and 0.718 and 0.747 | 0.864 and 0.848 and 0.882
B5 | 0.481 | 0.953
B6 | 0.717 and 0.783 and 0.718 | 0.847 and 0.925 and 0.848
B7 | 0.442 and 0.431 | 0.876 and 0.854
B8 | 0.438 | 0.868
B9 | 0.457 | 0.906
B10 | 0.826 and 0.775 | 0.976 and 0.916
B11 | 0.42 and 0.458 and 0.428 | 0.833 and 0.908 and 0.848
B12 | 0.814 and 0.807 | 0.962 and 0.953
B13 | 0.469 | 0.93
B14 | 0.47 and 0.483 | 0.932 and 0.957
B15 | 0.437 | 0.866
B16 | 0.45 | 0.892
B17 | 0.468 | 0.928
B18 | 0.46 and 0.467 and 0.493 | 0.912 and 0.926 and 0.977
B19 | 0.429 | 0.85
B20 | 0.44 and 0.439 | 0.872 and 0.87
B21 | 0.471 and 0.428 | 0.934 and 0.848
